Experimental data as given in publication PMC12015630.

Target: LmrR_V15aY
Experiment: SEC; purified LmrR_V15aY after affinity chromatography; conditions not shown (Fig. S2, ESI)

Substance LmrR_V15aY (enzyme) has a stoichiometry N of 2.
